Assay: yeast display, Sf9 membrane polyspecificity reagent, FACS + sequencing; frameworks hold sequencing errors
How it was run: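 Using colony PCR, genes from sorted yeast display clones were amplified, then sequenced on MiSeq at 2 × 250 and filtered by CDR length. The clones had been stained with 10% biotinylated, detergent-solubilized Sf9 membrane reagent for 1 hour at 4 °C and sorted by FACS into low and high (top ~1%) gates on anti-HA and streptavidin fluorescence. Polyreactivity labels come from the gate of origin.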

Sequence	polyreactivity (PSR sort gate)
QVQLVESGGGLVQAGGSLRLSCAASGRTFYNAMGWYRQAPGKERELVAAITTGGGTKYADSVKGRFTISRDNAKNTVYLQMNSLKPEDTAVYYCNTDEWYHFYHGAHKYDYWGQGTQVTVSS	low polyreactivity
QVQLVESGGGLVQAGGSLRLTCAASGFIFWANAMGWYRPAPGKERELVAAIRYSGGRTYYADSVKGRYTISRDNAKNTVFLQKNSLKPEDTAVYYCAKEYKKYGGFVVENDYWGQGTQVNVSS	low polyreactivity
QVQLVESGGGLVQAGGSLRLSCAASGRIFFKNTMGWYRQAPGNESELVAAITSSGSSTYYADSVKARFTISRDNSKNNVYLQMNSLKPEDTAVYYCNALTWDHSRTGVDYWGQGTQVTVSS	low polyreactivity
QVQLVESGGGLVQAGGSLRLSCAASGSTFVYNTMGWYTQAPGKERELVAGIDWSGGRTFYADSVKGRFTISRDNAKNTVYLQMNSLKPEDTAVYYCAKRLRVYRPWTYNYWGQGTQVTVSS	high polyreactivity
QVQIVESGGGLVQAGGSLRLSCAASGRIFVRNAMGWYRQAPAKERELVADITNGGSTNYADSVKGRFTISRDNEKNTVYLQMNSLKPEDTAVYYCAADSLGVYDGDYWGQGTQVTVSS	low polyreactivity
QVQLVESGGGLVQAGGSLRLSCAASGRTFSRYTMGWYRQAPGKERELVARISQRGGSTYYADSVKGRFTISRDYAKNTVYLQMNSLKPEDTAVYYCAKKTYSPYGGYDSWGQGTQVTVSS	high polyreactivity
QVQLVESGGGLVQAGGSLRLSCAASGRTYRTYAMGWYRQAPGKEREFVAAITSSGGSTYYADSVKGRFTISRDNAKNTVDLEMNSLKPEDTAVYSCNAKRRYGPDKYDYWGQGTQVTVSS	high polyreactivity
QVQLVESGGGLVQAGGSHRLSCAASGITFGSYVMGWYRQAPGKERELVAAISRSGGRTYYADSVKGRFTISRDNAKNTVYLQMNSLKPEDTAVYYCAARYDSGNYVYWGQGTQLTVSS	high polyreactivity
QVQLVESGGGLVQAGGSLRLSCAASGRTLSWYAMGWYRQAPGKEWEFVAAITSSGASTYYADSVKGRFTISRDNANNTVYLQMNSLKPEDTAVYYCNAAWRRVWFNYCGQGTQVTVSS	high polyreactivity
QVQLVESGGGLVQAGGSLRLSCAASGLIFRPYAMGWYRQAPGKERELVAAISSSGGSTYYADSVKGRFTISRDNAKNTVYLQMNSLKPEDTAVYYCATYFARGYNSWGQGTQVTVSS	high polyreactivity
QVQLVESAGGLVQARGSLRLSCAASGRIFVPYAMGWYRQAPGKERELVAVISRGGSTYYADSVKGRFTISRDNAKNTVYLQMNSLKPEDTAVYYCAVASKLALQPWYDYWGQGTQVTVSS	high polyreactivity
QVQLVESGGGLVQAGGSLRLSCAASGNTFYHYAMGWYRQAPGKERELVAAITWTGDSTYYADSVKGRFTISRDNAKNTVYLQMNSLKPEDTAVYYCNRVGYQSMNYWGQGTQVTVSS	low polyreactivity
QVQLVESGGGLVQAGGSLRLSCAASGRTFGRYAMGWYRQAPGKERELVAAITRGGGSTYYADSVKGRFTISRDNAKYTVYLQMNSLKPEDTAVYYCAARNFRSPYGYDYWGQGTQVTVSS	high polyreactivity
QVQLVESGGGLVQAGGSLRLSCAASGYTIYVNAMGRYRQAPAKQRQLVASNRRDSTYYADSVKGRFTISRDNAKNTVYLQMNSLKPEDSAVYYCAVDWYPWLYDGRTYEYWGQGTQVTVSS	low polyreactivity
QVQLVESGGGLVQAGGSLRLSCAASGFTFYRYAMGWYRQAPGKERELVASISRNGGSTYYADTVKGRFTISRDTEKNTVYFLMNSLKPEDTAVYYCNTAFYPPTNFYWGQGTQVTVSS	high polyreactivity
QVQLVESVGGLVQAGGSLRLSCAASGITSGTYAMGWYRQAPGKERELVAAISSSGGRTYYADSVKGRFTISRDNAKNTVYLQMNSLKPEDTAVYYCAARIRLSLRTGYDYWGQGTQVTVSS	high polyreactivity

Sequence	polyreactivity (PSR sort gate)
QVQLVESGGGLVQAGGSLRLSCAASGFNFYRYTLGWYRQAPGKERELVASITRRCGSTYYADSVKGRFTISRDNAKHTVYLQMNILKQEDTAEYYCNDATPVWQSGTYDYWGQGTQVTVSS	high polyreactivity
QVQLVESGGGLVQAGGSLRLSCAASGSIFYAYTMGWYRQAPGKERELVASITKSGGSTYYADSVKGRFTISRDNAKNTVYLQMNSLKPEDTAVYYCAAAFNRYGTTSYWYRHYYWGQGTQVTVSS	high polyreactivity
QVQLVESGGGLVQAGGSLRLSCAASGSTFVYNAMGWYRQAPGKERELVAAISARTGRTYYADSVKGRFTISRDNAKNTVYLQMNSLKPEDTAVYYCARRYYTGYKNLPYGYWGQGTQVTVSS	high polyreactivity
QVQLVESGGGLVQAGGSLRLSCAASRRIFDVNSMGWYRQAPGKERELVAAISSGGNTKYADSVKGRFTISRDNAKNSVYLQMNSLKPEDTAVYYCIADGKAAGDYDYWGQGTQVTVSS	low polyreactivity
QVQLVESGGGLVQAGGSLRLSCAASGRIFTHNAMGWYRQAPGKEREVVAAISYSGVSTYYADSVKGRFTISRDNAKNTVYLQRNSLNTDDTAVYFCARRYWYPDAFYRYDYWGQGTPVTVSS	low polyreactivity
QVQLVESGGGLVQAGGSLRLSCAASGSIFYYYVMGWYRQAPGKEREFVAAISWGGDSTYYADSVKGRFTISRDNAKNTVYLQMNSLKPEDTAVYYCAAVRYNSRVSTTPSEMYYWGQGTQVTVSS	low polyreactivity
QVQLVESGGGLVQAGGSLRLSCAASGSNFRFYVMGWYRQAPGKERELVAAISIGGSTNYADSVKGRFTISRDNAKNSVYLQMNSLKPEDTAVYYCAADYWYGAGLPHGTEFDYWGQGTQVTVSS	low polyreactivity
QVQLVESGGGLVQAGGSLRLSCAASGLIFSYNAMGWYRQAPGKERELVATIRRVGSTNYADSVKGRFTISRDNAKNTVYLQMNSLKPEDTAVYYCAARSLRYGRGMYYWGQGTQVTVSS	high polyreactivity
QVQLVESGGGLVQAGGSLRLSCAASGFTFSNYTMGWYRQAPVKERELVARITTRGTSTYYADSVKGRFTISRDNAKNTVYLQMNSLKPEDTAVYYCNARARYPRGYEYDYWGQGTQVTVSS	high polyreactivity
QVQLVESGGGLVQAGGSLRLSCAASGSIFWPNSMGWYRQAPGKERELVAAISWGTGSTYYADSVKGRFTISRDNAKNTVYLQMNSLKPEDTAVYYCAADGAYLDPYYDYWGQGTQVTVSS	low polyreactivity
QVQLVESGGGLVQAGGSLRLSCAASGLIYTPYAMGWYRQAPGKERELVAAINYGGSRTYYADSVKGRFTISRDNAKNTVYLQMNSLKPEDTAVYYCNKPGNYVWRRSWDFDYWGQGTQVTVSS	high polyreactivity
QVQLVESGGGLVQAGGSLRLSCAASGLIIPFYAMGWYRQAPGKERELVAAISWSAGSTYYADSVKGRFTISRDNAKNTVYLQMNSLKPEDTADYYCATERNPADFYWGQGTQVTVSS	low polyreactivity
QVQLVESGGGLVQAGGPLRLSCAASGRIVWNAMGWYRQAPGKEREFVASITWSVGSTYYADSVKGRFTISRDNAKNTVYLQMNSLKPEDTAVYYCAADSYSGYYYWGQGTQVTVSS	high polyreactivity
QVQLVESGGGLVQAGGSLRLSCAASGSTFGGNDMGWYRQAPGKERELVAAISSGTSTNYADSVKGRFTISRDNAKNTVYLQMNSLKPEDTAVYYCAAKWHVRGRGARYRYDYDYWGQGTQVTVSS	low polyreactivity
QVQLVESGGGLVQAGGSLRISCAASGIIFDRYVMGWYRQAPGKERELVATITRSVNTDYADSVKGRFTISRDNAKNTVYLQMNSLKPEDTAVYYCAARKYYYFPVAYDYWGQGTQVTVSS	high polyreactivity
QVQLVESGGGLVQAGGSLRLSCAASGSTFTSYAMGWYRQAPGKESEFVAAISWDGDNTYADSVKGRFTISRDNAKNTVYLQMNSLKPEDTAVYYCAASHQNGNFGWGYDSWGQGTQVTVSS	high polyreactivity
